# Reference: patent publication US20120148571A1 (Ablynx, published 2012)
# B1: Nanobody 4A1 (VHH)
# VHH: EVQLVESGGGLVQPEGSLRLSCRASGSIFSINTMGWYRQPPGKEREFVARIYPGITHYADSVKGRFTISRDNAKNTVYLQMNSLKPEDTAVYYCFYYYDDRNYWGEGTLVTVSS
# notes: Injected as a periplasmic preparation of soluble Nanobody
# Biological target: T1, human serum albumin (human, UniProt P02768 25-609)
# T1 construct: also called HSA; humans serum albumin
# Test: SPR (Biacore), human serum albumin immobilized on CM5 chip, periplasmic Nanobody preparation injected in running buffer of pH 5, pH 6, pH 7 or HBS-EP+
# Description: Human serum albumin is immobilized on a CM5 sensor chip surface via amine coupling using NHS/EDC for activation and ethanolamine for deactivation (Biacore amine coupling kit)
# Approximately 1000 RU of cynomolgus and humans serum albumin respectively is immobilized. Experiments are performed at 25° C. […] This mixture is brought to pH7, pH6 and pH5 by adding HCl or NaOH (dependent on the pH of the mixture measured). Standard buffer HBS-EP+Periplasmic extracts or purified Nanobodies are diluted in running buffers of pH7, pH6 and pH5. The samples are injected for 1 min at a flow rate of 45 ul/min over the activated and reference surfaces. Those surfaces are regenerated with a 3 s pulse of glycine-HCl pH1.5+0.1% P20. Evaluation is done using Biacore T100 evaluation software.
binder,measurement,value
B1,binding result,binds
